Data from the supplement of paper PMC9170038.

System: MS2 coat protein
Experiment: apparent KD of MS2 coat protein; designed switch direction (-1 OFF switch, 1 ON switch): -1; higher = weaker reporter binding
Procedure, shortened: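 Stalled E. coli RNA polymerase transcribed designed RNA switches on Illumina chips, which were then titrated with SNAP-549-labelled MS2 coat protein, doubling from 0.7 or 1.5 nM to 3 µM. Steps lasted from 0.8–1.5 h at the lowest concentration to 10–20 min at the highest. The apparent KD is each design's median over clusters of curve-fitted normalised fluorescence.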

[1] = input ligand: microRNA oligo, concentration not stated
[2] = Eterna round: R95, input ligand: microRNA oligo, concentration not stated
[3] = Eterna round: R95, input ligand: FMN 200 uM
[4] = Eterna round: R95, input ligand: none

Row | Sequence | apparent KD of MS2 coat protein (input ligand: FMN 200 uM) [µM] | apparent KD of MS2 coat protein [1] [µM] | apparent KD of MS2 coat protein (input ligand: none) [µM] | apparent KD of MS2 coat protein [2] [µM] | apparent KD of MS2 coat protein [3] [µM] | apparent KD of MS2 coat protein [4] [µM]
1 | AUAAAGCAGUCAGGAUAUAUGAGAGGUCGUUUCAUAGAAGGGACAGCUCGUGCGUGGCUGACAUGAGGAUCACCCAUGUACGUU [Enrizala] (Eterna round: R96, puzzle: Exclusion NG 1) | 0.229 | 0.0391 | 0.0376 |  |  | 
2 | GGUAUACAUGAGGAUCACCCAUGUCAGGAUAUGUAUGCAUAUGCCGAAAGGCAUAUGCUCAGAAGGGACUAUAU [AK-MS2ROC-r4-exclusion1-4.0] (Eterna round: R97, puzzle: Exclusion 1) | 0.0424 |  | 0.032 |  |  | 
3 | ACGAGGUCAGGAUAUACGGAGAGAGGGAGUUGGUUAGGGUAACAUGAGGAUCACCCAUGUAGAAGGGACUAGGG [JR_Exclu2_Sub080] (puzzle: Exclusion 2) |  |  |  | 0.0399 |  | 
4 | GAAAAGGUAGGAUAUACGAAAAAAAAGGGUAGAAAAAAAACACAUGAGGAUCACCCAUGUAGAAGGACCAAAAC [salish99_ex2_r3_052] (puzzle: Exclusion 2) |  |  |  | 0.0353 | 0.0947 | 0.0278
5 | GUCAUCAAACAUGGGAUCAACAUGAGGAUCACCCAUGUUGACAAGUUUUUUGCUCGUCUUAUAAUAAGUUUGAUGAC [Antenna 9 - Jieux - Sensor, turn-off variant 1] (Eterna round: R97, puzzle: Sensor, turn-off variant 1) | 0.0155 |  | 0.0162 |  |  | 
6 | CAUACAGUAGUCAGGAUAUUGCAACACACACGGAACGAGAAGGGACAUGAGGAUCACCCAUGUAUACUGUAAAG [EX-4 Malc #5] (puzzle: Brourd's mod of Exclusion 4) |  |  |  | 0.021 | 0.016 | 0.0247
7 | CAGUACUGAGGAUAUACAUGAGGAUCACCCAUGUGUUCCAGCUAGGAAACUAGGAAAAGUAGAAGGCAGUACUG [salish99_ex3_r3_069] (puzzle: Exclusion 3) |  |  |  | 0.0231 |  | 
8 | ACAGACCGUGUUAGGAUAUUAUUUUACUCAAGUAGUGAGAAGGGACAUGAGGAUCACCCAUGUGUGGGAGUUGA [Eternabot (L2) Solution 42] (Eterna round: R97, puzzle: Brourd's mod of Exclusion 4) | 0.083 |  | 0.087 |  |  | 
9 | GGGUAACAUGAGGAUCACCCAUGUGAGGAUAUUCUAGGGAUGGAAGCUCGGCCGGCCAGGAGAAGGUACUAAAG [Janelle Amethyst 18 Mod 20 - Jieux - Exclusion 1] (Eterna round: R96, puzzle: Exclusion 1) | 0.062 | 0.0296 | 0.0482 |  |  | 
10 | UAUUAGCAAGUGAGAUCCCACAUGAGGAUCACCCAUGUGCUCGUCUUUUAACGUACUGUGAGGAAACUCACGGUACG [Sensor-V1 #82] (Eterna round: R97, puzzle: Sensor, turn-off variant 1) | 0.0621 |  | 0.0671 |  |  | 
11 | UAUUCGCGAGGAUAUGCAGUCGAGUCCAUUACGUGUCUGGGACUUGAGGAUCACCCAAGUAGAAGGCGUCUCAU [salish99_ex2_r4_642] (Eterna round: R97, puzzle: Exclusion 2) | 0.124 |  | 0.123 |  |  | 
12 | AGGAUGUUAGGAUAUCGGAUAUGCUGGAGGAGGUGGAUUUACGAGAAGGAACAUGAGGAUCACCCAUGUUGGAG [JR_Exclu4_Sub047] (puzzle: Exclusion 4) |  |  |  | 0.0209 |  | 
13 | ACAGUACUGCAAGGAUAUCGUUCUAGUUUAUUACGAGAAGGUGCUUUAGUUAUUUCUUUGGGUUGACAUGAGGAUCACCCAUGU [JR_ExcNG1_Sub056] (Eterna round: R96, puzzle: Exclusion NG 1) | 0.156 | 0.143 | 0.144 |  |  | 
14 | GGAUCGAUAGUGAGGAUAUACCACUGGAUACAGUGGUAGAAGGCACAUGAGGAUCACCCAUGUCCUAACGAUCC [Fiskers BMX 4 - 49] (puzzle: Brourd's mod of Exclusion 4) |  |  |  | 0.0176 |  | 
15 | GAGCAGUGAGGAUAUACAUGAGGAUCACCCAUGUAAUGGUAGUCGGGAUUAAUUUGGUGUAGAAGGCGCUUAUU [JR_Ex3_Sub021] (Eterna round: R97, puzzle: Exclusion 3) | 0.064 |  | 0.0799 |  |  | 
16 | CUGGUCCGAGGAUAUAUUAAGUGAUACAUGAGGAUCACCCAUGUAAUUUGAUGGAAGUAAAUAGAAGGCGGACUAG [Mat - Exclusion 5 - JL mod - D45] (puzzle: Exclusion 5) |  |  |  | 0.043 | 0.0342 | 0.074
17 | CCAGCGAGUGUGAGGAUAUGCUGGUCCUUGGAUCAGCAGAAGGCACAUGAGGAUCACCCAUGUGAGGACGUUGG [JL bmx4 3.31] (Eterna round: R96, puzzle: Brourd's mod of Exclusion 4) | 0.294 | 0.0279 | 0.0319 |  |  | 

Row | Sequence | apparent KD of MS2 coat protein (input ligand: FMN 200 uM) [µM] | apparent KD of MS2 coat protein [1] [µM] | apparent KD of MS2 coat protein (input ligand: none) [µM] | apparent KD of MS2 coat protein [2] [µM] | apparent KD of MS2 coat protein [3] [µM] | apparent KD of MS2 coat protein [4] [µM]
18 | AGUUGGCGAGGAUAUACAUGAGGAUCACCCAUGUAUGAGAUACGAGUAAGGUAAAUAUGUAGAAGGCGCUGACA [JR_Ex3_Sub077] (Eterna round: R97, puzzle: Exclusion 3) | 0.052 |  | 0.0168 |  |  | 
19 | GAUCAUGCAGGAUAUACAUGGAACAUUAAAUCAUGAAUUUCACAUGAGGAUCACCCAUGUAGAAGGGCAUGAUC [Omei Ex2 A16] (Eterna round: R97, puzzle: Exclusion 2) | 0.0325 |  | 0.0316 |  |  | 
20 | UUCCUCACUUCUUUGUCUCACAUGAGGAUCACCCAUGUAAUAUAGGAUAUGCUUAGUAUUUAUAUGCAGAAGGAUAUUAGUAUU [JR_ExcNG3_Sub084] (Eterna round: R96, puzzle: Exclusion NG 3) | 0.157 | 0.0398 | 0.0555 |  |  | 
21 | CUAUCCAGAGGAUAUACGAGAUCGAAAGAUCGGCGAUCCCUACAUGAGGAUCACCCAUGUAGAAGGCUGGAUAG [Mod 17 - Jieux - Exclusion 2] (Eterna round: R97, puzzle: Exclusion 2) | 0.0838 |  | 0.0197 |  |  | 
22 | ACAUGAGGAUCACCCAUGUAAACAUGAUGGCUGAUGUAGAGCUAGGAUAUGAGUGACUUUCUAUCUCAGAAGGAGCUUGACUGG [Deportation 44 - Jieux - Exclusion NG 3] (Eterna round: R96, puzzle: Exclusion NG 3) | 0.0301 | 0.0269 | 0.0452 |  |  | 
23 | AAUAUCGUAGGAUAUUAAUACUCAGACAUGAGGAUCACCCAUGUUUGGUGGGUCGGAGAAUGAGAAGGGCGAUGAA [EX5 #15] (Eterna round: R97, puzzle: Exclusion 5) | 0.086 |  | 0.0547 |  |  | 
24 | CGGGUGCGGUGAGGAUAUCCGAAAGGAAGUGUAGGAGAAGGCACCAAGAACAUGAGGAUCACCCAUGUGACCUCAUAAGCCCGG [PowerStrip EXNG 1.9] (Eterna round: R96, puzzle: Exclusion NG 1) | 0.0349 | 0.254 | 0.406 |  |  | 
25 | UUCUUACGAGGAUAUCGAUGGUGGAACAUGAGGAUCACCCAUGUAUGAGAUAUUGUAUUUCGAGAAGGCGUUCAGU [JR_E5_Sub058] (puzzle: Exclusion 5) |  |  |  | 0.0516 |  | 
26 | UUUAAUUUUUUUUUUUUACAAGCUUUUUGCUCGUCUUAUACAUGAGGAUCACCCAUGUAAAUGAGGGAUAAAUUAUC [JMF 38] (puzzle: Sensor v3, turn-off variant 2) |  |  |  | 0.0213 | 0.0154 | 0.0157
27 | GCGGACAAGAUGGUGACAUCAGAGACAUGAGGAUCACCCAUGUAGGAUAUCGAUUCGAAACGAAUCGAGAAGGGCAUAGUCCGC [JL denovo 3] (Eterna round: R96, puzzle: Exclusion NG 3) | 0.46 | 0.19 | 0.224 |  |  | 
28 | GUGGCACAUGAGGAUCACCCAUGUUAGGAUAUGCUCAAAACGCCCUAGGGUAAGCUGUGUAGAAGGAGCAGGAC [Eternabot (L1) Solution 52] (Eterna round: R97, puzzle: Exclusion 1) | 0.0337 |  | 0.0356 |  |  | 
29 | AGAUUGCAUGAGGAUAUCGUAUUAGAUAUAAUGCGAGAAGGCAUGACAUGAGGAUCACCCAUGUAGUGUUGGGA [JR_Ex6_Sub012] (Eterna round: R97, puzzle: Exclusion 6) | 0.0751 |  | 0.0526 |  |  | 
30 | UCUAGACAUGAGGAUCACCCAUGUGAGGAUAUGAUGCGAUCGUCGAAAGACGAUAGCAUCAGAAGGCACGUAUG [Fiskers Ex 1 - 14] (puzzle: Exclusion 1) |  |  |  | 0.0544 |  | 
31 | AGAUGUAGAUGCCGAUCCUACAUGAGGAUCACCCAUGUAGCUAGACGUGCGGGCGGCGCUCGUCGGACUACCAGUAG [salish99_TOv1_r3_097] (puzzle: Sensor v3, turn-off variant 1) |  |  |  | 0.0824 | 0.0788 | 0.124
32 | ACCGAAGCAGGAUAUACAUGAGGAUCACCCAUGUGCUUGCAUGGCGUGGGAAGUCAUAGUAGAAGGGCUACGCC [Onzaza] (Eterna round: R97, puzzle: Exclusion 3) | 0.053 |  | 0.0224 |  |  | 
33 | GCCUCACUUGAGGAUCACCCAAGUCAGGAUAUUCACUGAACUGCGUAACAGCUCGGCCGAAGAAGGGAUUCGGG [Leisatat] (Eterna round: R97, puzzle: Exclusion 1) | 0.0808 |  | 0.0785 |  |  | 
34 | UCGUGAUUAGAGGAUAUAUUUUGAGUCAGAACAAUAGAAGGCUAAACAUGAGGAUCACCCAUGUAUGUGUAAAA [JR_Ex6_Sub063] (Eterna round: R97, puzzle: Exclusion 6) | 0.184 |  | 0.0269 |  |  | 
